Data published in US20070071744A1 (published 2007).
Ends that are not written are not given here.

How the values were obtained:
Test in all cases: PepSpot peptide array
peptide 126 = molecular target: T1, peptide 126 (human)
T1 peptide: Ac-PKESDSPAGPARQ
Protocol: (§1) The peptides were synthesized on a cellulose membrane in a stepwise manner resulting in a defined arrangement (peptide array) and are covalently bound to the cellulose membrane. Binding assays were performed directly on the peptide array. In general an antigen peptide array is incubated with blocking buffer for several hours to reduce non-specific binding of proteins or antibodies. It follows the incubation with a primary (antigen peptide-binding) antibody in blocking buffer and an incubation with a horseradish peroxidase (HRP)-labelled secondary antibody, which binds selectively the primary antibody. Alternatively a HRP-labelled primary antibody in blocking buffer can be used.
(§2) A short T(Tween)-TBS-buffer washing directly after the incubation of the antigen peptide array with the secondary protein or antibody or the HRP-labelled primary antibody followed by the first chemiluminescence experiment is made to get an first overview which antigen peptides do bind the primary antibody. Several buffer washing steps follow (T-TBS- and TBS-buffer) to reduce false positive binding (unspecific antibody binding to the cellulose membrane itself). After these washing steps the final chemiluminescence analysis is performed. The data were analysed with an imaging system showing the signal intensity (Light units, LU) as single measurements for each peptide. In order to evaluate non-specific binding of secondary antibodies, incubations using the secondary antibody have to be performed in the absence of the primary antibody as control incubation.

peptide 105 = molecular target: T2, peptide 105 (human)
T2 peptide: Ac-PSRLPTEPPSSVA
Protocol: as §1, §2

peptide 29 = molecular target: T3, peptide 29 (human)
T3 peptide: Ac-YRLEKLSSSRYQD
Protocol: as §1, §2

peptide 111 = molecular target: T4, peptide 111 (human)
T4 peptide: Ac-AEFSEATAELTVS
Protocol: as §1, §2

peptide 6 = molecular target: T5, peptide 6 (human)
T5 peptide: Ac-LGLCLGRVPAQSG
Protocol: as §1, §2

peptide 17 = molecular target: T6, peptide 17 (human)
T6 peptide: Ac-LPSSLVPLEKPVT
Protocol: as §1, §2

peptide 72 = molecular target: T7, peptide 72 (human)
T7 peptide: Ac-FALYKEGDPAPYK
Protocol: as §1, §2

peptide 8 = molecular target: T8, peptide 8 (human)
T8 peptide: Ac-LGRVPAQSGPLPK
Protocol: as §1, §2

peptide 79 = molecular target: T9, peptide 79 (human)
T9 peptide: Ac-PERWYRASFPIIT
Protocol: as §1, §2

peptide 39 = molecular target: T10, peptide 39 (human)
T10 peptide: Ac-AMKRSLAGRYRCS
Protocol: as §1, §2

peptide 40 = molecular target: T11, peptide 40 (human)
T11 peptide: Ac-KRSLAGRYRCSYQ
Protocol: as §1, §2

peptide 68 = molecular target: T12, peptide 68 (human)
T12 peptide: Ac-QTRYGFDQFALYK
Protocol: as §1, §2

peptide 21 = molecular target: T13, peptide 21 (human)
T13 peptide: Ac-EKPVTLRCQGPPG
Protocol: as §1, §2

peptide 94 = molecular target: T14, peptide 94 (human)
T14 construct: also called DPYLWSAPSDPLE
T14 peptide: Ac-DPYLWSAPSDPLE
Protocol: as §1, §2

peptide 109 = molecular target: T15, peptide 109 (human)
T15 peptide: Ac-PSSVAEFSEATAE
Protocol: as §1, §2

peptide 69 = molecular target: T16, peptide 69 (human)
T16 peptide: Ac-RYGFDQFALYKEG
Protocol: as §1, §2

peptide 93 = molecular target: T17, peptide 93 (human)
T17 peptide: Ac-SRDPYLWSAPSDP
Protocol: as §1, §2

peptide 99 = molecular target: T18, peptide 99 (human)
T18 peptide: Ac-PLELVVTGTSVTP
Protocol: as §1, §2

peptide 92 = molecular target: T19, peptide 92 (human)
T19 peptide: Ac-FSSRDPYLWSAPS
Protocol: as §1, §2

peptide 95 = molecular target: T20, peptide 95 (human)
T20 peptide: Ac-YLWSAPSDPLELV
Protocol: as §1, §2

peptide 98 = molecular target: T21, peptide 98 (human)
T21 peptide: Ac-SDPLELVVTGTSV
Protocol: as §1, §2

peptide 89 = molecular target: T22, peptide 89 (human)
T22 peptide: Ac-TYRCYSFSSRDPY
Protocol: as §1, §2

peptide 56 = molecular target: T23, peptide 56 (human)
T23 peptide: Ac-FAKPSLSAQPGPA
Protocol: as §1, §2

peptide 131 = molecular target: T24, peptide 131 (human)
T24 peptide: Ac-ARQYYTKGNGGRE
Protocol: as §1, §2

peptide 123 = molecular target: T25, peptide 123 (human)
T25 peptide: Ac-RSITTSPKESDSP
Protocol: as §1, §2

peptide 130 = molecular target: T26, peptide 130 (human)
T26 peptide: Ac-GPARQYYTKGNGG
Protocol: as §1, §2

peptide 49 = molecular target: T27, peptide 49 (human)
T27 peptide: Ac-SLPSDQLELVATG
Protocol: as §1, §2

peptide 57 = molecular target: T28, peptide 57 (human)
T28 peptide: Ac-KPSLSAQPGPAVS
Protocol: as §1, §2

peptide 48 = molecular target: T29, peptide 48 (human)
T29 peptide: Ac-LWSLPSDQLELVA
Protocol: as §1, §2

peptide 70 = molecular target: T30, peptide 70 (human)
T30 peptide: Ac-GFDQFALYKEGDP
Protocol: as §1, §2

peptide 52 = molecular target: T31, peptide 52 (human)
T31 peptide: Ac-LELVATGVFAKPS
Protocol: as §1, §2

peptide 115 = molecular target: T32, peptide 115 (human)
T32 peptide: Ac-ELTVSFTNKVFTT
Protocol: as §1, §2

peptide 59 = molecular target: T33, peptide 59 (human)
T33 peptide: Ac-SAQPGPAVSSGGD
Protocol: as §1, §2

peptide 113 = molecular target: T34, peptide 113 (human)
T34 peptide: Ac-EATAELTVSFTNK
Protocol: as §1, §2

peptide 14 = molecular target: T35, peptide 14 (human)
T35 peptide: Ac-KPSLQALPSSLVP
Protocol: as §1, §2

peptide 63 = molecular target: T36, peptide 63 (human)
T36 peptide: Ac-SSGGDVTLQCQTR
Protocol: as §1, §2

peptide 101 = molecular target: T37, peptide 101 (human)
T37 peptide: Ac-VVTGTSVTPSRLP
Protocol: as §1, §2

peptide 76 = molecular target: T38, peptide 76 (human)
T38 peptide: Ac-PAPYKNPERWYRA
Protocol: as §1, §2

peptide 88 = molecular target: T39, peptide 88 (human)
T39 peptide: Ac-SGTYRCYSFSSRD
Protocol: as §1, §2

peptide 119 = molecular target: T40, peptide 119 (human)
T40 peptide: Ac-KVFTTETSRSITT
Protocol: as §1, §2

peptide 62 = molecular target: T41, peptide 62 (human)
T41 peptide: Ac-AVSSGGDVTLQCQ
Protocol: as §1, §2

peptide 84 = molecular target: T42, peptide 84 (human)
T42 peptide: Ac-IITVTAAHSGTYR
Protocol: as §1, §2

B1: monoclonal antibody hGP 5C4 (antibody, V domains shown)
VH: EVKLQESGGGLVQPGRSLKLSCTASGFTFSDYFMSWVRQAPTRGLEWVASISSGGASAYWRDSVKGRFTISRDNAKSALYLQMDSLRSEDTATYFCARGELDFDYWGQGVMVAVSS
VL: ADPNSTLLSASVGDRVTLNCTASQNVYKNLAWYQQKLGEAPRLLLYSANSQTGIPSRFSGSGSGPDFTLTISSLQPEDVASYFCQQYYSGNTFGAGTKLELKR
notes: Rat hybridoma antibody (Lou/C rats), heavy chain gamma 2a, light chain kappa; also called ab 5C4; anti-GPVI mAb 5C4
In the case of B1, the “LU (Light Units)” value (peptide 126) is reported as 119 LU, the “LU (Light Units)” value (peptide 105) is reported as 33 LU and the “LU (Light Units)” value (peptide 29) is reported as 169 LU. For the same binder, the “LU (Light Units)” value (peptide 111) was 136 LU, the “LU (Light Units)” value (peptide 6) was 91 LU and the “LU (Light Units)” value (peptide 17) was 160 LU. For the same binder, the “LU (Light Units)” value (peptide 72) was 35 LU, the “LU (Light Units)” value (peptide 8) was 794 LU and the “LU (Light Units)” value (peptide 79) was 119 LU. For the same binder, the “LU (Light Units)” value (peptide 39) was 134 LU, the “LU (Light Units)” value (peptide 40) was 139 LU and the “LU (Light Units)” value (peptide 68) was 84 LU. For the same binder, the “LU (Light Units)” value (peptide 21) was 128 LU, the “LU (Light Units)” value (peptide 94) was 63 LU and the “LU (Light Units)” value (peptide 109) was 69 LU. The “LU (Light Units)” value (peptide 69) was 78 LU, the “LU (Light Units)” value (peptide 93) was 107 LU and the “LU (Light Units)” value (peptide 99) was 202 LU. The “LU (Light Units)” value (peptide 92) was 110 LU, the “LU (Light Units)” value (peptide 95) was 120 LU and the “LU (Light Units)” value (peptide 98) was 141 LU. For the same binder, the “LU (Light Units)” value (peptide 89) was 46 LU, the “LU (Light Units)” value (peptide 56) was 759 LU and the “LU (Light Units)” value (peptide 131) was 289 LU. The “LU (Light Units)” value (peptide 123) was 91 LU, the “LU (Light Units)” value (peptide 130) was 255 LU and the “LU (Light Units)” value (peptide 49) was 91 LU. The “LU (Light Units)” value (peptide 57) was 128 LU, the “LU (Light Units)” value (peptide 48) was 47 LU and the “LU (Light Units)” value (peptide 70) was 3 LU. The “LU (Light Units)” value (peptide 52) was 148 LU, the “LU (Light Units)” value (peptide 115) was 143 LU and the “LU (Light Units)” value (peptide 59) was 155 LU. For the same binder, the “LU (Light Units)” value (peptide 113) was 135 LU, the “LU (Light Units)” value (peptide 14) was 1420 LU and the “LU (Light Units)” value (peptide 63) was 2 LU. For the same binder, the “LU (Light Units)” value (peptide 101) was 211 LU, the “LU (Light Units)” value (peptide 76) was 78 LU and the “LU (Light Units)” value (peptide 88) was 64 LU. For the same binder, the “LU (Light Units)” value (peptide 119) was 287 LU, the “LU (Light Units)” value (peptide 62) was 49 LU and the “LU (Light Units)” value (peptide 84) was 87 LU.
